Publication PMC7271899, “Bayesian modeling reveals metabolite‐dependent ultrasensitivity in the cyanobacterial circadian clock” (Molecular Systems Biology, 2020)

T1: KaiA (Synechococcus elongatus, UniProt Q79PF6 1-284)
T1 construct: KaiA, circadian clock protein of Synechococcus elongatus; source: expressed and purified as previously described (Phong et al, 2013); anion exchange on HiTrap Q columns
T1 sequence (looked up): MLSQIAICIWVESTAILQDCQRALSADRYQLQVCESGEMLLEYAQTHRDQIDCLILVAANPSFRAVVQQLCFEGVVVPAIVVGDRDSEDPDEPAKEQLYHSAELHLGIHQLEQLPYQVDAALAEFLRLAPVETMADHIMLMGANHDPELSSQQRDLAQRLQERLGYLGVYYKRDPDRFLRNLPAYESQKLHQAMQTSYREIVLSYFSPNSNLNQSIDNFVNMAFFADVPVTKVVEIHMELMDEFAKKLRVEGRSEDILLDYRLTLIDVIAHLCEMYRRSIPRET


Legend:
KaiA = target: T1, KaiA; assay: co-IP; in vitro KaiABC clock reaction of purified proteins (KaiC present), time course; KaiB-FLAG precipitated with monoclonal anti-FLAG M2 antibody, eluted with 3xFLAG peptide; KaiA left in the supernatant quantified by SDS-PAGE (SYPRO Ruby) against 1.5 uM GFP as internal standard; details: both partners purified
[1] = target: the molecule itself; assay: SEC; Superdex 75 1660 prep grade column, step of the purification after Ni-NTA

Binder | binding result (KaiA) | stoichiometry N [1]
KaiB-FLAG (natural protein, Synechococcus elongatus, UniProt Q79PF5 1-102, looked up, KaiB, circadian clock protein of Synechococcus elongatus; also called FLAG-tagged KaiB; source: expressed and purified as previously described (Phong et al, 2013); anion exchange on HiTrap Q columns) MSPRKTYILKLYVAGNTPNSVRALKTLKNILEVEFQGVYALKVIDVLKNPQLAEEDKILATPTLAKVLPLPVRRIIGDLSDREKVLIGLDLLYGELQDSDDF | binds | 
C-terminal domain of KaiA (residues 181-284) (domain or fragment, Synechococcus elongatus, UniProt Q79PF6 181-284, looked up, KaiA of Synechococcus elongatus, C-terminal domain, residues 181-284; Uniformly 15N labelled, grown in deuterated water, for NMR; Purified as described in Chang et al, 2011, 2012; Tseng et al, 2014; also called C-terminal KaiA; source: E. coli BL21(DE3), M9 media with 15N NH4Cl in 98% D2O, purified (Ni-NTA, SEC on Superdex 75)) NLPAYESQKLHQAMQTSYREIVLSYFSPNSNLNQSIDNFVNMAFFADVPVTKVVEIHMELMDEFAKKLRVEGRSEDILLDYRLTLIDVIAHLCEMYRRSIPRET |  | 2
